According to patent publication US4783441A, “Aqueous protein solutions stable to denaturation” (Hoechst Aktiengesellschaft, priority 1979, dated 1988):

B1: Egg-albumin: egg albumin (protein, UniProt P01012 2-386, looked up)
Ovalbumin: GSIGAASMEFCFDVFKELKVHHANENIFYCPIAIMSALAMVYLGAKDSTRTQINKVVRFDKLPGFGDSIEAQCGTSVNVHSSLRDILNQITKPNDVYSFSLASRLYAEERYPILPEYLQCVKELYRGGLEPINFQTAADQARELINSWVESQTNGIIRNVLQPSSVDSQTAMVLVNAIVFKGLWEKAFKDEDTQAMPFRVTEQESKPVQMMYQIGLFRVASMASEKMKILELPFASGTMSMLVLLPDEVSGLEQLESIINFEKLTEWTSSNVMEERKIKVYLPRMKMEEKYNLTSVLMAMGITDVFSSSANLSGISSAESLKISQAVHAAHAEINEAGREVVGSAEAGVDAASVSEEFRADHPFLFCIKHIATNAVLFFGRCVSP

Tests used:
[1] = Adsorption of proteins on polystyrene beads at 5° C., protein concentration in filtrate, Example 3; type: physicochemical; details: for protein concentration in solution, A: A = 3 ml of protein solution + 450 μl of buffer (no polystyrene), phosphate buffer pH 7; for protein concentration in solution (filtrate), B: B = after contact with treated polystyrene surfaces (block polymer PPG MW 2,250, 5% PEG each side; 20 ppm present); for protein concentration in solution (filtrate), B / protein concentration in solution (filtrate), C: shaken at 5° C., 0.2 μm filtered; for protein concentration in solution (filtrate), C: C = after contact with untreated polystyrene surfaces
Experimental: 10 ml of an aqueous suspension of polystyrene beads (Dow-Latex®) having an average diameter of 0.481 μm were divided in two aliquots, one of which remained untreated while the other was shaken for 2 days at room temperature with 50 mg of a block polymer consisting of a linear polypropylene glycol chain with an average molecular weight of 2,250 (Dalton) on each side of which 5% of polyethylene glycol had been added by polymerization. The excess block polymer was then removed by dialysis against an aqueous solution containing 20 ppm of the same polymeric, surface-active substance.
Two times 3 ml portions of a solution of the proteins indicated in the following table in the given concentrations in phosphate buffer, pH 7, were prepared and each solution was shaken at 5° C. with 500 μl each of the untreated polystyrene suspension or the polystyrene suspension treated as described above, the latter still containing 20 ppm of the block polymer. Each sample was then filtered to clarity through a 0.2 μm filter.
A=3 ml of the respective protein solution+450 μl of buffer
B=after contact with treated polystyrene surfaces
C=after contact with untreated polystyrene surfaces.

[2] = Shaking test of peptide hormone solutions at 37° C., Example 5; details: for appearance after a few days of shaking: 0.1% solution in 0.05M Tris/HCl buffer pH 7.5, shaken at 37° C., without stabilizer; for appearance of stabilized samples: 0.1% solution in 0.05M Tris/HCl pH 7.5, shaken at 37° C., with 10 ppm block polymer (PPG MW 2,000, 5% PEG each side)
[3] = Shaking test of albumin solutions at 37° C. (turbidity from denatured protein), Example 1b; type: physicochemical; details: 0.1% solution in 0.01M phosphate buffer pH 7, shaken at 37° C.
[4] = Adsorption of β-galactosidase on silicone oil emulsion, enzyme activity in aqueous phase, Example 2; type: physicochemical
Experimental: Ten samples of 10 ml each of a 0.01% solution of the enzyme β-galactosidase from E. coli in 0.01M phosphate buffer, pH 7, with 3×10^6 μU/ml were admixed stepwise with 10 to 100 mg of silicone oil AK 350 and the suspensions were shaken for 48 hours at 5° C. Emulsions were formed which could be separated into two phases by ultracentrifugation (40,000 g, 30 minutes, 4° C.). The enzyme activity in the aqueous phase was determined.

[5] = Shaking test of protein solutions at 37° C. with analytical ultracentrifuge check, Example 6; type: physicochemical
Experimental: 0.1% solutions of egg albumin, human immunoglobulin-G and myoglobin of the whale, respectively, in 0.01M phosphate buffer, pH 7, and analogous solutions containing 0.1%, calculated on the weight of the solution, of the following compound [drawing 4] in which n and m are chosen to obtain a compound having an average total molecular weight of 12,500 Daltons with an ethylene oxide proportion of 40%, were freed from aggregates by ultracentifugation (for example 100,000 g/90 minutes). Ampules containing 10 ml each of the solutions were shaken at 37° C.

| Molecule | protein concentration in solution, A [1] [mg/mL] | protein concentration in solution (filtrate), B [1] [mg/mL] | protein concentration in solution (filtrate), C [1] [mg/mL] | appearance after a few days of shaking [2] | other results |
| --- | --- | --- | --- | --- | --- |
| Insulin | 1.0 | 1.0 | 0.2 | – | – |
| Lysozyme | 1.0 | 0.95 | 0.25 | – | – |
| adrenocorticotropic hormone: peptide hormone (SYSMEHFRWGKPVGKKRRPVKVYPNGAEDESAEAFPLEF; Corticotropin; UniProt P01189 138-176, looked up) | – | – | – | had become turbid | appearance of stabilized samples [2]: remained clear even after several months |
| bovine serum albumin: bovine serum albumin, 0.1% solution | – | – | – | – | appearance of sample containing stabilizer ([3]; with 10 ppm block polymer (polypropylene glycol MW 1,750, 5% polyethylene glycol on each side)): still limpid after several month; time after which sample became strongly turbid (denatured protein) ([3]; without stabilizer): 7 days |
| calcitonin | – | – | – | had become turbid | appearance of stabilized samples [2]: remained clear even after several months |
| cholecystokinin | – | – | – | had become turbid | appearance of stabilized samples [2]: remained clear even after several months |
| gastrin | – | – | – | had become turbid | – |
| gastrin inhibiting polypeptide: peptide hormone | – | – | – | had become turbid | – |
| secretin: peptide hormone | 1.0 | 1.0 | 0.3 | had become turbid | – |
| β-galactosidase: enzyme β-galactosidase from E. coli | – | – | – | – | enzyme adsorbed by silicone oil emulsion ([4]; 0.01% solution, 0.01M phosphate buffer pH 7, 10 to 100 mg silicone oil AK 350, shaken 48 hours at 5° C., without stabilizer): up to 70%; enzyme activity adsorbed on silicone oil ([4]; same test in the presence of 100 ppm of compound drawing 2): no enzyme activity had been adsorbed |
| B1 | 0.5 | 0.50 | 0.22 | – | appearance of samples without stabilizer ([5]; 0.1% solution in 0.01M phosphate buffer pH 7, freed from aggregates, shaken at 37° C., without stabilizer): became strongly turbid after a few hours; appearance of samples containing surface-active substance ([5]; 0.1% solution in 0.01M phosphate buffer pH 7, shaken at 37° C., with 0.1% of compound drawing 4 (MW 12,500, 40% ethylene oxide)): remained limpid for several months; new aggregates in analytical ultracentrifuge ([5]; samples with 0.1% of compound drawing 4 after shaking at 37° C.): no new aggregate could be found |
